Substrate: O=C(O)[C@@H](CO)OP(=O)(O)O
Experiment: purified protein
Type: biochemical, Chloroflexus aurantiacus
Settings: 25 °C, pH 6.5, 50 mM Bis-Tris propane, 5 mM MgCl2, crystal structure with 2-PGA in active site, open conformation

B1: EnoCa (enolase-1 from Chloroflexus aurantiacus) (Chloroflexus aurantiacus J-10-fl) (protein)
chain: MSTLIEAIVAREVLDSRGNPTIEVDVRLESGDVGRAIVPSGASTGAHEALELRDGDKSRYNGKGVLKAVQAVNEDIAEALIGFDAADQIALDQELIALDGTPNKSKLGANAILGVSLAAAKAAAAAFGLPLYRYLGGVYAHVLPVPMMNIMNGGQHATNSTDFQEFMIMPVGAESFREGLRWGAEIYHMLKKVIHDRGFSTTVGDEGGFAPSLPTNDAPLQLIMEAIEKAGYRPGEQIVIALDPATTEIFEDGKYHLKREGRSLSSAEMVDYWVDLVNRYPIISLEDGLAEDDWEGWALLRAKLGDRVQLVGDDFLVTNVQRLQRAIEAKAANSILIKLNQIGSLTETLSAIQLAQRSGWTAVVSHRSGESEDVTIADLVVATNAGQIKTGAPARTDRIAKYNQLLRIEEELGSAARYAGRSAFKV
notes: native protein purified from C. aurantiacus cells, untagged; homodimer, subunit ~46 kDa, total ~92-96 kDa
Protein B1 has a Km of 160 ± 10 µM.
